We go through 3 substances from publication PMC6082575.

Assay [1] concerns the target C-X-C chemokine receptor type 4 (mouse, on cultured hippocampal neurons) (mouse (endogenous in cultured hippocampal neurons)) (UniProt P70658).
For assay [2], the target named is C-X-C chemokine receptor type 4 (feline, on cultured hippocampal neurons) (cat (endogenous in cultured feline hippocampal neurons)) (UniProt P56498).
Assay [3] addresses C-X-C chemokine receptor type 4 (mouse, on cultured hippocampal neurons) (mouse (endogenous in cultured hippocampal neurons)) (UniProt P70658). The source holds these as a separate data set.

Chain of UniProt P70658 (P70658 whole entry): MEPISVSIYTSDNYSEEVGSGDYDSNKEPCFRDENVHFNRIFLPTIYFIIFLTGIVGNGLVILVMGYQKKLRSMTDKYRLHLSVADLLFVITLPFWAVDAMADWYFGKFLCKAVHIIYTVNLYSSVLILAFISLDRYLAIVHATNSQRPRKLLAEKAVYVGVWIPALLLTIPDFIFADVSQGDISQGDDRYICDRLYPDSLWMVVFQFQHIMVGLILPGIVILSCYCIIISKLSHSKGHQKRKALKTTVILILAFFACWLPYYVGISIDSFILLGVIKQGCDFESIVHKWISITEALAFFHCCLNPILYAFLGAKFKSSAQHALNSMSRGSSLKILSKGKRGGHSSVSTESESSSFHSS
Chain of UniProt P56498 (P56498 whole entry): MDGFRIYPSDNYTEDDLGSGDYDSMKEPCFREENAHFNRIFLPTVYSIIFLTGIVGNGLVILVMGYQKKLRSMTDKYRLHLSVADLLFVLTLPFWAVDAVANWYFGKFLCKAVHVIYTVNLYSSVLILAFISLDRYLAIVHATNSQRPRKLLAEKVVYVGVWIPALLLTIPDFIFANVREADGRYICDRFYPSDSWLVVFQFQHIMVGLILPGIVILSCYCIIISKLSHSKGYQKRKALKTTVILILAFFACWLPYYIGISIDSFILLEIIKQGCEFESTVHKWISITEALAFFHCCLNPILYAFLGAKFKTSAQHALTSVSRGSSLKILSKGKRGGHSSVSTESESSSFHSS

Take “FIV envelope glycoprotein gp95 (Fc fusion)”: the normalised total Ca2+ activity (GCaMP5 imaging) in cultured mouse hippocampal neurons treated with 1-nM gp95 and 200-nM AMD3100 (CXCR4 antagonist) in assay [1] was 1.18 ΔF/Fmin. In assay [2], the normalised total Ca2+ activity (GCaMP5 imaging) in cultured feline hippocampal neurons treated with 1-nM gp95 and 200-nM AMD3100 (CXCR4 antagonist) is 0.99 ΔF/Fmin.
Turning to “stromal cell-derived factor-1 (from UniProt P48061 22-93) (ligand)”, the normalised total Ca2+ activity (GCaMP5 imaging) in cultured mouse hippocampal neurons treated with 20-nM SDF-1 and 200-nM AMD3100 (CXCR4 antagonist) in assay [3] is 1.26 ΔF/Fmin.
Turning to “HIV-1 IIIB gp120 Recombinant Protein (from UniProt P04578 33-511) (ligand)”, the normalised total Ca2+ activity (GCaMP5 imaging) in cultured mouse hippocampal neurons treated with 1-nM gp120 (IIIB) and 200-nM AMD3100 (CXCR4 antagonist) in assay [3] was 0.85 ΔF/Fmin.
